According to patent US8309523 (VIB VZW, dated 2012):
Changes are numbered by the printed parent chain. Names and notes keep the numbering of the source. Like-named read-outs stand apart in the source and are kept apart here.

B1: MALT1C-gyraseB-C464A (enzyme, part only; not given: gyrase B fragment)
chain, part: TTDQPLAKDKVALLIGNMNYREHPKLKAPLVDVYELTNLLRQLDFKVVSLLDLTEYEMRNAVDEFLLLLDKGVYGLLYYAGHGYENFGNSFMVPVDAPNPYRSENCLCVQNILKLMQEKETGLNVFLLDMARKRNDYDDTIPILDALKVTANIVFGYATCQGAEAFEIQHSGLANGIFMKFLKDRLLEDKKITVLLDEVAEDMGKCHLTKGKQALEIRSSLSEKRALTDPIQGTEYSAESLVRNLQWAKAHELPESMCLKFDCGVQIQLGFAAEFSNVMIIYTSIVYKPPEIIMCDAYVTDFPLDLDIDPKDANKGTPEETGSYLVSKDLPKHCLYTRLSSLQKLKEHLVFTVCLSYQYSGLEDTVEDKQEVNVGKPLIAKLDMHRGLGRKTCFQTCLMSNGPYQSSAATSGGAGHYHSLQDPFHGVYHSHPGNPSNVTPADSCHCSRTPDAFISSFAHHASCHFSRSNVPVETTDEIPFSFSDRLRISEK
B2: MALT1 (wild type, Flag- and Avi-tagged bio-construct) (protein)
chain: MSLLGDPLQALPPSAAPTGPLLAPPAGATLNRLREPLLRRLSELLDQAPEGRGWRRLAELAGSRGRLRLSCLDLEQCSLKVLEPEGSPSLCLLKLMGEKGCTVTELSDFLQAMEHTEVLQLLSPPGIKITVNPESKAVLAGQFVKLCCRATGHPFVQYQWFKMNKEIPNGNTSELIFNAVHVKDAGFYVCRVNNNFTFEFSQWSQLDVCDIPESFQRSVDGVSESKLQICVEPTSQKLMPGSTLVLQCVAVGSPIPHYQWFKNELPLTHETKKLYMVPYVDLEHQGTYWCHVYNDRDSQDSKKVEIIIGRTDEAVECTEDELNNLGHPDNKEQTTDQPLAKDKVALLIGNMNYREHPKLKAPLVDVYELTNLLRQLDFKVVSLLDLTEYEMRNAVDEFLLLLDKGVYGLLYYAGHGYENFGNSFMVPVDAPNPYRSENCLCVQNILKLMQEKETGLNVFLLDMCRKRNDYDDTIPILDALKVTANIVFGYATCQGAEAFEIQHSGLANGIFMKFLKDRLLEDKKITVLLDEVAEDMGKCHLTKGKQALEIRSSLSEKRALTDPIQGTEYSAESLVRNLQWAKAHELPESMCLKFDCGVQIQLGFAAEFSNVMIIYTSIVYKPPEIIMCDAYVTDFPLDLDIDPKDANKGTPEETGSYLVSKDLPKHCLYTRLSSLQKLKEHLVFTVCLSYQYSGLEDTVEDKQEVNVGKPLIAKLDMHRGLGRKTCFQTCLMSNGPYQSSAATSGGAGHYHSLQDPFHGVYHSHPGNPSNVTPADSCHCSRTPDAFISSFAHHASCHFSRSNVPVETTDEIPFSFSDRLRISEK
B3: MALT1 as used in the paracaspase assay of Example 10 (protein)
chain: B2 chain
B4: MALT1-C464A (bio-tagged) (protein)
chain: B2 chain with C464A
B5: MALT1-R149A (bio-tagged) (protein)
chain: B2 chain with R149A

What was measured:
[1] = test system: T1, Ac-LSSR-AMC
T1 sequence: LSSR

[2] = test system: T2, Z-GASR-CHO
T2 sequence: GASR

[3] = test system: T3, Z-LSSR-CHO
T3 sequence: LSSR

[4] = biological target: T4, [35S]methionine-labeled human A20 (in vitro translated) (UniProt P21580)
T4 sequence: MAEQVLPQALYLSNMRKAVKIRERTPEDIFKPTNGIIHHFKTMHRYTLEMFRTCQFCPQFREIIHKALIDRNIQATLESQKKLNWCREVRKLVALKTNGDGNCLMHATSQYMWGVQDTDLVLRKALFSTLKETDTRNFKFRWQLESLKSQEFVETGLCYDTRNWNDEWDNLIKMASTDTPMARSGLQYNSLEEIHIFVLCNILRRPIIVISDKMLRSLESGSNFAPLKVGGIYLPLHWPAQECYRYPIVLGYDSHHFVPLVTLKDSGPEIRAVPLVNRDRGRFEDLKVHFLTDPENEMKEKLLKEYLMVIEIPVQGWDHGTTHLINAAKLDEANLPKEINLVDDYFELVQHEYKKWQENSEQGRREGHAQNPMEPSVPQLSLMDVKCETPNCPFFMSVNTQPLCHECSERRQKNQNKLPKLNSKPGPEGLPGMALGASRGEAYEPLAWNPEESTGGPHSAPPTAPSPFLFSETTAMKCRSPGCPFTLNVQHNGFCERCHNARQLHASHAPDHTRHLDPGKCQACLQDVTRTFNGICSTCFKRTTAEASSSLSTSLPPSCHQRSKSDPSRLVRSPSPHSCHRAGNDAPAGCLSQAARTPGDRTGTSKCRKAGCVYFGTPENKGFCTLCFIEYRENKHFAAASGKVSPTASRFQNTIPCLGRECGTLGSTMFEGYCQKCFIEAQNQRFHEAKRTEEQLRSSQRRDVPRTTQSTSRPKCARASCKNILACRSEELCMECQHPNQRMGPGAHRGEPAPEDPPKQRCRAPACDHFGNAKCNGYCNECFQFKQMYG

[5] = biological target: T5, Ac-LSSR-AMC
T5 chain: LSSR

[6] = biological target: T6, Z-LSSR-CHO
T6 chain: LSSR

[7] = biological target: T7, Arabidopsis thaliana serpin (AT1g47710), Q9S7T8
T7 chain: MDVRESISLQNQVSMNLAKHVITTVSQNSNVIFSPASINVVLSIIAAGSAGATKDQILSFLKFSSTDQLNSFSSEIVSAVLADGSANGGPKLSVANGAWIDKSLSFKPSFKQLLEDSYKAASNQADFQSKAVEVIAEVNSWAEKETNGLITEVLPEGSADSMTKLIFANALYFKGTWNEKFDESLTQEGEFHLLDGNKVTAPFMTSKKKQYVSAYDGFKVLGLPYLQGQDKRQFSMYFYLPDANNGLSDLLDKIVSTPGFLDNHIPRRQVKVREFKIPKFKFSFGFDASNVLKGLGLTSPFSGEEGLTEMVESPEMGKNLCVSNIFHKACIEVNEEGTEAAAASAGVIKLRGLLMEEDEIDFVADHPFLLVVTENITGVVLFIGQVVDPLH

[8] = biological target: T8, Arabidopsis thaliana serpin, IKLA-mutant, Q9S7T8
T8 chain: T7 chain with R351A

| Molecule | cleavage of Ac-LSSR-AMC in vitro (fluorescence release) [1] | in vitro cleavage of radiolabeled A20 (SDS-PAGE, autoradiography; 500, 1000 or 1500 nM enzyme) [4] | cleavage of Ac-LSSR-AMC in vitro (fluorescence release) [5] | further results |
| --- | --- | --- | --- | --- |
| MALT1C-gyraseB | the recombinant MALT1 p20 fragment (Sun et al., 2004) efficiently cleaved the Ac-LSSR-AMC (see SEQ ID NO:1) substrate | In vitro incubation of radiolabeled A20 with recombinant MALT1C-gyraseB resulted in the generation of an A20 fragment of approximately 50 kDa | – | Ac-LSSR-AMC cleavage by recombinant MALT1 [2]: adding Z-LSSR-CHO (see SEQ ID NO:1) or Z-GASR-CHO (see SEQ ID NO:2) completely blocked the proteolytic activity of recombinant MALT1; Ac-LSSR-AMC cleavage by recombinant MALT1 [3]: adding Z-LSSR-CHO (see SEQ ID NO:1) or Z-GASR-CHO (see SEQ ID NO:2) completely blocked the proteolytic activity of recombinant MALT1 |
| B1 | the recombinant C464A mutant failed to do so, although its higher concentration | incubation of A20 with the catalytically inactive MALT1C-gyraseB-C464A mutant protein did not result in A20 cleavage | – | – |
| B2 | – | – | bio-IP purified MALT1 was indeed able to cleave Ac-LSSR-AMC (see SEQ ID NO:1) in vitro | Ac-LSSR-AMC cleavage by bio-IP purified MALT1 (fluorescence release) [6]: Substrate cleavage by MALT1 was efficiently blocked by a Z-LSSR-CHO (see SEQ ID NO:1) and a Z-GASR-CHO (see SEQ ID NO:2) inhibitor at equimolar concentrations |
| B3 | – | – | – | paracaspase assay (MALT1 proteolytic activity) [7]: Inhibition of the MALT1 paracaspase activity is possible, but only at relatively high concentrations of serpin; paracaspase assay (MALT1 proteolytic activity) [8]: the IKLA-mutant (SEQ ID NO:16), which is inactive versus plant metacaspase (Vercammen et al., 2006) is performing better than wild type serpin at higher concentrations |
| B4 | – | – | whereas bio-1P purified C464 mutant was not | – |
| B5 | – | – | the R149A mutant was as efficient in substrate processing as MALT1 | – |
